The results in this text go back to publication PMC2656774 (Cell, 2009).

In this experiment the target is human eIF4A1, full-length (human, UniProt P60842 1-406). Nature of the experiment: SPR. (In general: In SPR one partner is held on a chip, and binding of the other changes the refractive index at the surface.)
Sequence of human eIF4A1, full-length (P60842 whole entry): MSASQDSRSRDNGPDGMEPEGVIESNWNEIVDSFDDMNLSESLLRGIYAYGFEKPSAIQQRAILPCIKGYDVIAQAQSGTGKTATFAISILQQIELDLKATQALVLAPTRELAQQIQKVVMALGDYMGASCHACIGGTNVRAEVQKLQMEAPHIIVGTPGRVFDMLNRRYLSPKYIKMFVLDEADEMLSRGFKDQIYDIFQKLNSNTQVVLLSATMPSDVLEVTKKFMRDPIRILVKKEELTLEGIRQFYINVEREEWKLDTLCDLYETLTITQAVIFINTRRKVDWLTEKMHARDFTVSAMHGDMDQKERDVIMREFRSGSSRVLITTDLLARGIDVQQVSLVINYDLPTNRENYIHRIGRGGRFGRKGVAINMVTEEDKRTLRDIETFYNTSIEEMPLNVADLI

B1: human eIF4H isoform 2 (natural protein)
chain: not shown
Regarding B1, the binding result was “binds”.
